Data published in article PMC12775570.

Assays:
[1] = molecular target: Recombinant human MET extracellular domain (Homo sapiens) (UniProt P08581); experiment: high-speed atomic force microscopy
[2] = molecular target: His-tagged recombinant human EGFR extracellular domain (Homo sapiens) (UniProt P00533); experiment: high-speed atomic force microscopy

- percent of the observation period bound [1]: 87%
- percent of the observation period with both EGFR and MET bound to amivantamab [1]: 78%
- percent of the observation period with both EGFR and MET bound to amivantamab [2]: 78%
Substance: Amivantamab (bispecific antibody)
